{"source": "the supplement of paper PMC9112550", "about": "“Optimization of the antimicrobial peptide Bac7 by deep mutational scanning” (BMC Biology, 2022);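 note: peptides expressed intracellularly from a pBAD plasmid library in pooled LB shake-flask culture, induced with 0.3% L-arabinose, DNA abundance read by NGS, three biological replicates, DESeq2 with apeglm shrinkage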"}
{"test_system": "Escherichia coli TOP10", "experiment": "shrunken log2 fold change of peptide-encoding DNA abundance (4.5 h post-induction vs induction); higher = less antimicrobial activity (less host growth inhibition)", "conditions": "time post-induction: 4.5 h; library: site-saturation at positions 5, 18, 19, 20"}
{"sequence": "RRIRWRPPRLPRPRPRPRRRPRP", "shrunken log2 fold change": 1.3}
{"sequence": "RRIRPRPPRLPRPRPRPTKVPRP", "shrunken log2 fold change": -0.0777}
{"sequence": "RRIRHRPPRLPRPRPRPEQFPRP", "shrunken log2 fold change": 0.000995}
{"sequence": "RRIRLRPPRLPRPRPRPHGLPRP", "shrunken log2 fold change": 0.123}
{"sequence": "RRIRYRPPRLPRPRPRPFAIPRP", "shrunken log2 fold change": -0.158}
{"sequence": "RRIRFRPPRLPRPRPRPGCPPRP", "shrunken log2 fold change": 0.00835}
{"sequence": "RRIRFRPPRLPRPRPRPFRMPRP", "shrunken log2 fold change": -0.173}
{"sequence": "RRIRDRPPRLPRPRPRPKCMPRP", "shrunken log2 fold change": -0.153}
{"sequence": "RRIRQRPPRLPRPRPRPRIEPRP", "shrunken log2 fold change": 0.111}
{"sequence": "RRIRLRPPRLPRPRPRPAKHPRP", "shrunken log2 fold change": -0.221}
{"sequence": "RRIRCRPPRLPRPRPRPREHPRP", "shrunken log2 fold change": 0.161}
{"sequence": "RRIRFRPPRLPRPRPRPGTQPRP", "shrunken log2 fold change": -0.0219}
{"sequence": "RRIRLRPPRLPRPRPRPDRVPRP", "shrunken log2 fold change": -0.0538}
{"sequence": "RRIRKRPPRLPRPRPRPENCPRP", "shrunken log2 fold change": 0.654}
{"sequence": "RRIRWRPPRLPRPRPRPMIYPRP", "shrunken log2 fold change": -0.542}
{"sequence": "RRIRTRPPRLPRPRPRPHKSPRP", "shrunken log2 fold change": 0.119}
{"sequence": "RRIRCRPPRLPRPRPRPAWTPRP", "shrunken log2 fold change": -0.154}
{"sequence": "RRIRTRPPRLPRPRPRPGTGPRP", "shrunken log2 fold change": 0.257}
{"sequence": "RRIRTRPPRLPRPRPRPLESPRP", "shrunken log2 fold change": -0.0663}
{"sequence": "RRIRHRPPRLPRPRPRPWENPRP", "shrunken log2 fold change": 0.0621}
{"sequence": "RRIRRRPPRLPRPRPRPERDPRP", "shrunken log2 fold change": 0.423}
{"sequence": "RRIRQRPPRLPRPRPRPFNTPRP", "shrunken log2 fold change": -0.29}
{"sequence": "RRIRPRPPRLPRPRPRPHDNPRP", "shrunken log2 fold change": -0.347}
{"sequence": "RRIRGRPPRLPRPRPRPTNPPRP", "shrunken log2 fold change": 0.367}
{"sequence": "RRIRLRPPRLPRPRPRPDKIPRP", "shrunken log2 fold change": -0.494}
{"sequence": "RRIRGRPPRLPRPRPRPQGKPRP", "shrunken log2 fold change": 0.0794}
{"sequence": "RRIRGRPPRLPRPRPRPWERPRP", "shrunken log2 fold change": 0.0531}
{"sequence": "RRIRDRPPRLPRPRPRPRWYPRP", "shrunken log2 fold change": -0.0526}
{"sequence": "RRIRSRPPRLPRPRPRPAWNPRP", "shrunken log2 fold change": 0.467}
{"sequence": "RRIRIRPPRLPRPRPRPEDDPRP", "shrunken log2 fold change": -0.16}
{"sequence": "RRIRIRPPRLPRPRPRPKGGPRP", "shrunken log2 fold change": 0.04}
{"sequence": "RRIRMRPPRLPRPRPRPNFEPRP", "shrunken log2 fold change": 0.422}
{"sequence": "RRIRKRPPRLPRPRPRPHKNPRP", "shrunken log2 fold change": 0.207}
{"sequence": "RRIRYRPPRLPRPRPRPAYPPRP", "shrunken log2 fold change": -0.422}
{"sequence": "RRIRDRPPRLPRPRPRPFERPRP", "shrunken log2 fold change": -0.0141}
{"sequence": "RRIRVRPPRLPRPRPRPPAKPRP", "shrunken log2 fold change": 0.603}
{"sequence": "RRIRPRPPRLPRPRPRPNYQPRP", "shrunken log2 fold change": -0.293}
{"sequence": "RRIRVRPPRLPRPRPRPPMFPRP", "shrunken log2 fold change": -0.161}
{"sequence": "RRIRYRPPRLPRPRPRPQYGPRP", "shrunken log2 fold change": -0.161}
{"sequence": "RRIRPRPPRLPRPRPRPTWMPRP", "shrunken log2 fold change": -0.0166}
{"sequence": "RRIRCRPPRLPRPRPRPYCHPRP", "shrunken log2 fold change": -1.37}
{"sequence": "RRIRPRPPRLPRPRPRPQMLPRP", "shrunken log2 fold change": 0.0602}
{"sequence": "RRIRDRPPRLPRPRPRPHISPRP", "shrunken log2 fold change": -0.0535}
{"sequence": "RRIRCRPPRLPRPRPRPYRVPRP", "shrunken log2 fold change": 1.99}
{"sequence": "RRIRNRPPRLPRPRPRPVAEPRP", "shrunken log2 fold change": 0.363}
{"sequence": "RRIRSRPPRLPRPRPRPHSTPRP", "shrunken log2 fold change": -0.312}
{"sequence": "RRIRKRPPRLPRPRPRPRQPPRP", "shrunken log2 fold change": 0.467}
{"sequence": "RRIRFRPPRLPRPRPRPQIVPRP", "shrunken log2 fold change": 0.0871}
{"sequence": "RRIRVRPPRLPRPRPRPEPWPRP", "shrunken log2 fold change": 0.128}
{"sequence": "RRIRMRPPRLPRPRPRPKKNPRP", "shrunken log2 fold change": 1.46}
{"sequence": "RRIRNRPPRLPRPRPRPNNDPRP", "shrunken log2 fold change": -0.934}
{"sequence": "RRIRCRPPRLPRPRPRPSHEPRP", "shrunken log2 fold change": -0.334}
{"sequence": "RRIRTRPPRLPRPRPRPYGMPRP", "shrunken log2 fold change": -0.0576}
{"sequence": "RRIRYRPPRLPRPRPRPCTSPRP", "shrunken log2 fold change": -0.679}
{"sequence": "RRIRQRPPRLPRPRPRPHAKPRP", "shrunken log2 fold change": 0.12}
{"sequence": "RRIRMRPPRLPRPRPRPASKPRP", "shrunken log2 fold change": 0.0582}
{"sequence": "RRIRLRPPRLPRPRPRPCMEPRP", "shrunken log2 fold change": 0.115}
{"sequence": "RRIRYRPPRLPRPRPRPWGEPRP", "shrunken log2 fold change": -0.102}
{"sequence": "RRIRMRPPRLPRPRPRPVGDPRP", "shrunken log2 fold change": 0.173}
{"sequence": "RRIRIRPPRLPRPRPRPYEKPRP", "shrunken log2 fold change": -0.352}
{"sequence": "RRIRMRPPRLPRPRPRPPISPRP", "shrunken log2 fold change": 0.163}
{"sequence": "RRIRDRPPRLPRPRPRPGVYPRP", "shrunken log2 fold change": 0.0379}
{"sequence": "RRIRARPPRLPRPRPRPAFLPRP", "shrunken log2 fold change": 0.486}
{"sequence": "RRIRFRPPRLPRPRPRPKNPPRP", "shrunken log2 fold change": -0.00149}
{"sequence": "RRIRQRPPRLPRPRPRPQFLPRP", "shrunken log2 fold change": -0.359}
{"sequence": "RRIRCRPPRLPRPRPRPKSAPRP", "shrunken log2 fold change": 0.146}
{"sequence": "RRIRHRPPRLPRPRPRPRPEPRP", "shrunken log2 fold change": -0.165}
{"sequence": "RRIRERPPRLPRPRPRPRFEPRP", "shrunken log2 fold change": 0.168}
{"sequence": "RRIRYRPPRLPRPRPRPAEEPRP", "shrunken log2 fold change": 0.0567}
{"sequence": "RRIRHRPPRLPRPRPRPYHLPRP", "shrunken log2 fold change": -0.085}
{"sequence": "RRIRWRPPRLPRPRPRPHNLPRP", "shrunken log2 fold change": -0.414}
{"sequence": "RRIRCRPPRLPRPRPRPSERPRP", "shrunken log2 fold change": -0.0162}
{"sequence": "RRIRNRPPRLPRPRPRPFQNPRP", "shrunken log2 fold change": -0.0271}
{"sequence": "RRIRMRPPRLPRPRPRPGNEPRP", "shrunken log2 fold change": 1.05}
{"sequence": "RRIRGRPPRLPRPRPRPIMCPRP", "shrunken log2 fold change": 0.0901}
{"sequence": "RRIRERPPRLPRPRPRPTSMPRP", "shrunken log2 fold change": -0.713}
{"sequence": "RRIRDRPPRLPRPRPRPVINPRP", "shrunken log2 fold change": -0.0846}
{"sequence": "RRIRVRPPRLPRPRPRPFCDPRP", "shrunken log2 fold change": -0.218}
{"sequence": "RRIRTRPPRLPRPRPRPDLHPRP", "shrunken log2 fold change": -0.174}
{"sequence": "RRIRARPPRLPRPRPRPGEVPRP", "shrunken log2 fold change": 0.935}
{"sequence": "RRIRARPPRLPRPRPRPNSMPRP", "shrunken log2 fold change": -0.527}
{"sequence": "RRIRVRPPRLPRPRPRPQSNPRP", "shrunken log2 fold change": -0.394}
{"sequence": "RRIRIRPPRLPRPRPRPEKPPRP", "shrunken log2 fold change": -0.0144}
{"sequence": "RRIRSRPPRLPRPRPRPAISPRP", "shrunken log2 fold change": 0.153}
{"sequence": "RRIRHRPPRLPRPRPRPQDPPRP", "shrunken log2 fold change": 0.0646}
{"sequence": "RRIRLRPPRLPRPRPRPVFMPRP", "shrunken log2 fold change": -0.203}
{"sequence": "RRIRARPPRLPRPRPRPHCIPRP", "shrunken log2 fold change": 0.102}
{"sequence": "RRIRHRPPRLPRPRPRPCQPPRP", "shrunken log2 fold change": -0.0284}
{"sequence": "RRIRNRPPRLPRPRPRPTWGPRP", "shrunken log2 fold change": -0.00179}
{"sequence": "RRIRPRPPRLPRPRPRPDCQPRP", "shrunken log2 fold change": -0.0657}
{"sequence": "RRIRWRPPRLPRPRPRPWFYPRP", "shrunken log2 fold change": -0.705}
{"sequence": "RRIRQRPPRLPRPRPRPYGNPRP", "shrunken log2 fold change": -0.0235}
{"sequence": "RRIRARPPRLPRPRPRPYQPPRP", "shrunken log2 fold change": 0.589}
{"sequence": "RRIRTRPPRLPRPRPRPRMTPRP", "shrunken log2 fold change": 0.146}
{"sequence": "RRIRHRPPRLPRPRPRPLKDPRP", "shrunken log2 fold change": -0.361}
{"sequence": "RRIRHRPPRLPRPRPRPCLYPRP", "shrunken log2 fold change": -0.057}
{"sequence": "RRIRFRPPRLPRPRPRPQWHPRP", "shrunken log2 fold change": -0.461}
{"sequence": "RRIRLRPPRLPRPRPRPNWFPRP", "shrunken log2 fold change": -0.00982}
{"sequence": "RRIRSRPPRLPRPRPRPKLPPRP", "shrunken log2 fold change": -0.0678}
{"sequence": "RRIRRRPPRLPRPRPRPGIAPRP", "shrunken log2 fold change": 0.185}
{"sequence": "RRIRCRPPRLPRPRPRPPPAPRP", "shrunken log2 fold change": 1.46}
{"sequence": "RRIRVRPPRLPRPRPRPPKMPRP", "shrunken log2 fold change": -0.0776}
{"sequence": "RRIRRRPPRLPRPRPRPTAYPRP", "shrunken log2 fold change": 0.676}
{"sequence": "RRIRNRPPRLPRPRPRPRMNPRP", "shrunken log2 fold change": 0.00678}
{"sequence": "RRIRPRPPRLPRPRPRPNTMPRP", "shrunken log2 fold change": -0.492}
{"sequence": "RRIRARPPRLPRPRPRPGQDPRP", "shrunken log2 fold change": 0.15}
{"sequence": "RRIRSRPPRLPRPRPRPIEIPRP", "shrunken log2 fold change": -0.00473}
{"sequence": "RRIRIRPPRLPRPRPRPHAHPRP", "shrunken log2 fold change": -0.554}
{"sequence": "RRIRDRPPRLPRPRPRPRCRPRP", "shrunken log2 fold change": -0.0929}
